A short description of the experiment: Coupled dehydrogenase assays for transaminase activity of the Pseudomonas sp. proteins and ancestral reconstructions. In kind it is biochemical. Particulars: for pH optimum: UV absorbance at 340 nm, pH range 7.5-10; for pH optimum / activity with ω-amino acids including long chain C11 and C12: 28° C.; for activity with ω-amino acids including long chain C11 and C12: 340 nm, pH 7.5-10. How it is done: Activity for each protein was assessed using coupled dehydrogenase assays as described previously. A typical assay comprised:
Substrate (6.25 mM final concentration in potassium phosphate buffer)
Co-substrate (pyruvate (0.5 mM final concentration) or α-KG (0.25 mM final concentration)
NAD (1.25 mM final concentration)
Dehydrogenase (1 μL from ADH-≧35 units/mL stock solution or GDH≧35 units/mg protein stock)
Transaminase (final concentration dependent)
Potassium phosphate buffer (100 mM)
UV absorbance at 340 nm was recorded at 28° C. over a pH range of 7.5-10 with a range of substrates.
Proteins encoded by p7N6, p7N15, p7N16, p7N17, p7N43 and p7N48 were expressed using an E. coli recombinant expression platform and subsequently purified.
Each of the proteins were assayed for substrate specificity. Substrates identified by assaying for each of the proteins are summarized below.

B1: p7: pyruvate: ω-amino acid transaminase from Pseudomonas sp., amino acid sequence SEQ ID NO:2 (protein, listed as Pseudomonas sp.)
chain: MGSSHHHHHHSSGLVPRGSHMTDYAKLFEQDRAHFMHPSTHAHDHASGALPGRIITGASGVRIRDHQGRELLDAFAGLYCVNIGYGRLEVADAIHEQAKQLAYYHTYVGHASEAIIELSARIIRDWAPAGMKKVYYGLSGSDANETQVKLVRYYNNVLGRPQKKKIISRQRGYHGSGIVTGSLTGLASFHQHFDLPVEGVKHTLCPHFYKAPAGMDEAAFVRHCAQELENLILAEGPDTVAAFIGEPVMGTGGIIVPPKGYWEAIQAVLAKYDVLLIADEVVCAFGRLGDKMGSQRHAMRPDLITTAKGLTSAYAPLSAVIVGEKVWDVIDSASTREGAMGHGWTYSGHPICAAAALANLDILERENITANAADVGGYLNQQLRQAFEGHPLVGEVRGDGMLAALEFMADREARTPFDAALKVGPKVSAACLERGMIARAMPHGDILGFAPPLVLSRAEADEVVGIAKAAVDAVAAEVL
Consider B1, for which the pH optimum is reported as around 10. Further, under “coupled dehydrogenase assay”, the smallest substrate accepted result is “C4 (γ-aminobutyrate; GABA)”; the “activity with ω-amino acids including long chain C11 and C12” value was “shown the desired activity with ω-amino acids, notably including long chain amino acids C11 and C12”.

B2: p4: pyruvate: ω-amino acid transaminase from Pseudomonas sp., amino acid sequence SEQ ID NO:6 (protein, listed as Pseudomonas sp.)
chain: MTKQTSAQTQHWQALSREHHLAPFTDYKQLNEKGARIITKAEGVYLWDSEGNKILDGMAGLWCMNVGYGRKELAEVAYKQMLELPYYNLFFQTAHPPALELAKAIADIAPEGMNHVFFTGSGSESNDTVLRMVRHYWSIKGKPQKKVVIGRWNGYHGSTVAGVSLGGMKALHSQGDLPIPGIVHIAQPYWYGEGGDMSAEEFGVWAAEQLEKKILEVGEENVAAFIAEPIQGAGGVIVPPDTYWPKIREILAKYEILFIADEVICGFGRTGEWFGSQYYGNAPDLMPIAKGLTSGYIPMGGVIVRDEIVDTLNEGGEFYHGFTYSGHPVAAAVALENIRILREEKIVETVKAETAPYLQKRWQELADHPLVGEARGVGMVGALELVKNKKTRERFENGVGMLCREHCFRNGLIMRAVGDTMIISPPLVITKPEIDELITLARKCLDQTAAVALS
Molecule B2 came in with a pH optimum of around 10. In addition, where the note is “coupled dehydrogenase assay”, the “activity with ω-amino acids including long chain C11 and C12” value was “shown the desired activity with ω-amino acids, notably including long chain amino acids C11 and C12”.

B3: p7N6: de novo peptide sequence based on p7, produced by ancestral reconstruction; SEQ ID NO:7 (protein)
chain: MTDFDQLFEQDRAHFMHPSTHAHDHASGALPGRIITGASGIRIRDHEGRELIDAFAGLYCVNIGYGRTEVADAIYKQAKELAYYHTYVGHSTEAIIELSSRIIRDWAPAGMKKVYYGLSGSDANETQIKLVRYYNNVLGRPQKKKIISRQRGYHGSGIMTGSLTGLPSFHQHFDLPVEGIKHTVCPHWYKAPAGMDEAAFVRYCADELEKLILAEGPDTVAAFIGEPVMGTGGIIVPPKGYWEAIQAVLNKYDVLLIADEVVCAFGRLGSKMGSQRYGMRPDLITTAKGLTSAYAPLSAVIVGEKVWDVIEKASQKEGAMGHGWTYSGHPICAAAALANLDILERENLTANAADVGAYLNQRLRETFEGHPLVGEVRGDGMLAALEFMADREARTPFDPALKVGPKVSAACLEDGMIARAMPHGDILGFAPPLVLTRAEADEIVGIAKAAVDEVAGEVL
modifications: Molecule produced by ancestral reconstruction
Take B3: the “activity of ancestral reconstruction proteins in the coupled assays” value (E. coli expressed, purified proteins) is given as “activity in accordance with p7”.

The values are drawn from patent publication US20160208226A1, “Transaminase Biocatalysts” (COMMONWEALTH SCIENTIFIC AND INDUSTRIAL RESEARCH ORGANISATION, priority 2013, published 2016).
